Reference: article PMC10959955 (2024)

Biological target: nucleosome reconstituted with human core histones and Widom 601 DNA (human, UniProt P04908 2-130; P06899 1-126; P68431 1-136; P62805 2-103)
Assay: MST

Row | Binder | Kd [nM]
1 | His6-tagged RING domain heterodimer, GA mutant (GST-RING^A T948G^A-T952A^A with His6-Twin-Strep-Rad6A-RING^B) (complex, RED-Tris-NTA label on the His6 tag) chain 1: PDNVPKCDEILMEEIKDYKARLTCPCCNMRKKDAVLTKCFHVFCFECVKGRYDARQRKCPKCNAAFGANDFHRIYIG chain 2: MSTPARRRLMRDFKRLQEDPPAGVSGAPSENNIMVWNAVIFGPEGTPFEDGTFKLTIEFTEEYPNKPPTVRFVSKMFHPNVYADGSICLDILQNRWSPTYDVSSILTSIQSLLDEPNPNSPANSQAAQLYQENKREYEKRVSAIVEQSWRDCVEVYADADEILQEEIKEYKARLTCPCCNTRKKDAVLTKCFHVFCFECVRGRYEARQRKCPKCNAAFGAHDFHRIYIS | 11.8
2 | His6-tagged RING domain heterodimer, TT mutant (GST-RING^A with His6-Twin-Strep-Rad6A-RING^B G974T^B-A978T^B) (complex, RED-Tris-NTA label on the His6 tag) chain 1: PDNVPKCDEILMEEIKDYKARLTCPCCNMRKKDAVLTKCFHVFCFECVKTRYDTRQRKCPKCNAAFGANDFHRIYIG chain 2: MSTPARRRLMRDFKRLQEDPPAGVSGAPSENNIMVWNAVIFGPEGTPFEDGTFKLTIEFTEEYPNKPPTVRFVSKMFHPNVYADGSICLDILQNRWSPTYDVSSILTSIQSLLDEPNPNSPANSQAAQLYQENKREYEKRVSAIVEQSWRDCVEVYADADEILQEEIKEYKARLTCPCCNTRKKDAVLTKCFHVFCFECVRTRYETRQRKCPKCNAAFGAHDFHRIYIS | 7.3
3 | His6-tagged RING domain heterodimer, wild type (GST-RING^A with His6-Twin-Strep-Rad6A-RING^B) (complex, RED-Tris-NTA label on the His6 tag) chain 1: PDNVPKCDEILMEEIKDYKARLTCPCCNMRKKDAVLTKCFHVFCFECVKTRYDTRQRKCPKCNAAFGANDFHRIYIG chain 2: MSTPARRRLMRDFKRLQEDPPAGVSGAPSENNIMVWNAVIFGPEGTPFEDGTFKLTIEFTEEYPNKPPTVRFVSKMFHPNVYADGSICLDILQNRWSPTYDVSSILTSIQSLLDEPNPNSPANSQAAQLYQENKREYEKRVSAIVEQSWRDCVEVYADADEILQEEIKEYKARLTCPCCNTRKKDAVLTKCFHVFCFECVRGRYEARQRKCPKCNAAFGAHDFHRIYIS | 7.8
4 | His6-tagged RING domain heterodimer, GA + TT mutant (GST-RING^A T948G^A-T952A^A with His6-Twin-Strep-Rad6A-RING^B G974T^B-A978T^B) (complex, RED-Tris-NTA label on the His6 tag) chain 1: PDNVPKCDEILMEEIKDYKARLTCPCCNMRKKDAVLTKCFHVFCFECVKGRYDARQRKCPKCNAAFGANDFHRIYIG chain 2: MSTPARRRLMRDFKRLQEDPPAGVSGAPSENNIMVWNAVIFGPEGTPFEDGTFKLTIEFTEEYPNKPPTVRFVSKMFHPNVYADGSICLDILQNRWSPTYDVSSILTSIQSLLDEPNPNSPANSQAAQLYQENKREYEKRVSAIVEQSWRDCVEVYADADEILQEEIKEYKARLTCPCCNTRKKDAVLTKCFHVFCFECVRTRYETRQRKCPKCNAAFGAHDFHRIYIS | 34
